Assay results reported in PMC9478129.

Legend:
[1] = test system: Aa-Cascade Avi-Cas6f, mSav-ATTO647N labelled (Aggregatibacter actinomycetemcomitans); test: single-molecule DNA curtains; settings: EMSA: 1x TAE, 200 mM NaCl, 10% glycerol, 0.1 mg/mL BSA, 20 nM DNA, 37 C (22 C for AcrIF9 mutants), 1% agarose, footprint: same buffer, 2 mM KMnO4, AFM: …
[2] = test system: Aa-Cascade Avi-Cas6f, mSav-ATTO647N labelled;Aa1-AcrIF9 (Aggregatibacter actinomycetemcomitans;Aggregatibacter actinomycetemcomitans?); test: single-molecule DNA curtains; settings: with AcrIF9, mean off-target dwell time 18.6 s, EMSA: 1x TAE, 200 mM NaCl, 10% glycerol, 0.1 mg/mL BSA, 20 nM DNA, 37 C (22 C for AcrIF9 mutants), 1% agarose, footprint: same buffer, 2 mM KMnO4, AFM: …

Substance: bacteriophage lambda DNA with target
- binding signal (% on-target events) [1]: 18
- binding signal (% on-target events) [2]: 8
